Test results taken from patent US20200165312A1, “COSMETIC COMPOSITION FOR IMPROVING SKIN CONDITIONS COMPRISING FUSION PROTEIN INCLUDING SKIN PENETRATION ENHANCING PEPTIDE” (LG HOUSEHOLD & HEALTH CARE LTD., priority 2017, published 2020).

B1: KGF: keratinocyte growth factor having an amino acid sequence of SEQ ID NO: 44 (protein)
chain: CNDMTPEQMATNVNCSSPERHTRSYDYMEGGDIRVRRLFCRTQWYLRIDKRGKVKGTQEMKNNYNIMEIRTVAVGIVAIKGVESEFYLAMNKEGKLYAKKECNEDCNFKELILENHYNTYASAKWTHNGGEMFVALNQKGIPVRGKKTKKEQKTAHFLPMAIT
modifications: Human KGF
B2: T-KGF: SEQ ID NO: 1 peptide C-terminal linked to N-terminal of KGF via GG linker (protein)
chain: NGSLNTHLAPILGGCNDMTPEQMATNVNCSSPERHTRSYDYMEGGDIRVRRLFCRTQWYLRIDKRGKVKGTQEMKNNYNIMEIRTVAVGIVAIKGVESEFYLAMNKEGKLYAKKECNEDCNFKELILENHYNTYASAKWTHNGGEMFVALNQKGIPVRGKKTKKEQKTAHFLPMAIT
modifications: Synthetic Fusion protein of T-KGF
B3: T-VEGF: SEQ ID NO: 1 peptide C-terminal linked to N-terminal of VEGF via GG linker (protein)
chain: NGSLNTHLAPILGGAPMAEGGGQNHHEVVKFMDVYQRSYCHPIETLVDIFQEYPDEIEYIFKPSCVPLMRCGGCCNDEGLECVPTEESNITMQIMRIKPHQGQHIGEMSFLQHNKCECRPKKDRARQENPCGPCSERRKHLFVQDPQTCKCSCKNTDSRCKARQLELNERTCRCDKPRR
modifications: Synthetic Fusion protein of T-VEGF

Experiments:
dermal papilla cells = experiment: Hair follicle stem cell proliferation: dermal papilla cells, Cell Counter Kit-8; type: cell-based; conditions: for Proliferation (%): one day, control = 100; for cell proliferation effect compared with the unfused protein: dermal papilla cells
Method: (§1) Specifically, dermal papilla cells were inoculated onto a 96-well plate and cultured for 24 hours to obtain cultures at a density of 6,000 cells per well. The cultures were washed with PBS and cultured in a serum-free DMEM medium for one day. The cells were washed with PBS again and cultured in a serum-free DMEM medium supplemented with 1 ng/mL T-PDGFa or PDGFa for one day. The cultures were obtained therefrom and a difference between proliferated amounts of cells was quantitively analyzed using the Cell Counter Kit-8 (Dojindo). Here, dermal papilla cells cultured in a serum-free DMEM medium without T-PDGFa or PDGFa were used as a control (Table 6).
Specifically, dermal papilla cells were inoculated onto a 96-well plate and cultured for 24 hours to obtain cultures at a density of 6,000 cells per well. The cultures were washed with PBS and cultured in a serum-free DMEM medium for one day. […] The cultures were obtained therefrom and a difference between proliferated amounts of cells was quantitively analyzed using the Cell Counter Kit-8 (Dojindo).
as §1, with “T-IGF-1” for “T-PDGFa”, “IGF-1” for “PDGFa”, “15).” for “6).”
as §1, with “10” for “1”, “T-KGF” for “T-PDGFa”, “KGF” for “PDGFa”, “19).” for “6).”
as §1, with “10” for “1”, “T-Tβ4” for “T-PDGFa”, “Tβ4” for “PDGFa”, “23).” for “6).”

[1] = Skin retentivity of growth factor fusion proteins (porcine skin disrupted, ELISA); type: in vitro ADME; conditions: for Remaining amount (%): skin after 16 hours penetration test; for skin retentivity higher than the unfused protein: summary of Tables 8, 13, 17, 21, 25
Method: (§2) Specifically, the porcine skin remained after the experiment of Example 3-2-4 was recovered, frozen in liquid nitrogen, and disrupted. An amount of PDGFa or T-PDGFa contained therein was quantitatively analyzed using the ELISA kit (R&D Systems). In addition, a relative amount of T-PDGFa to PDGFa was calculated as a remaining amount (Table 8).
Specifically, the porcine skin remained after the experiment of Example 3-3-4 was recovered, frozen in liquid nitrogen, and disrupted. An amount of VEGF or T-VEGF contained therein was quantitatively analyzed using the ELISA kit (R&D Systems).
as §2, with “3-4-4” for “3-2-4”, “IGF-1” for “PDGFa”, “T-IGF-1” for “T-PDGFa”, “17).” for “8).”
as §2, with “3-5-3” for “3-2-4”, “KGF” for “PDGFa”, “T-KGF” for “T-PDGFa”, “21).” for “8).”
as §2, with “3-6-3” for “3-2-4”, “Tβ4” for “PDGFa”, “T-Tβ4” for “T-PDGFa”, “25).” for “8).”

Row | Molecule | Proliferation (%) (dermal papilla cells; 10 ng/mL T-KGF or KGF) | Remaining amount (%) ([1]; relative to KGF) | cell proliferation effect compared with the unfused protein (dermal papilla cells) | skin retentivity higher than the unfused protein [1] | Proliferation (%) (dermal papilla cells; 1 ng/mL T-VEGF or VEGF) | Remaining amount (%) ([1]; relative to VEGF)
1 | B1 | 360 ± 35 | 100 ± 17% | – | – | – | –
2 | B2 | 270 ± 15 | 9,700 ± 850% | same level | about 100 times | – | –
3 | B3 | – | – | same level | about 100 times | 310 ± 20 | 9,800 ± 790%
